Data as given in article PMC4176181, “Multifaceted role of the Topo IIIα–RMI1-RMI2 complex and DNA2 in the BLM-dependent pathway of DNA break end resection”.

What was measured:
[1] = molecular target: BLM;DNA2-D277A (Homo sapiens;Homo sapiens, UniProt P54132;P51530 1-1417;1-1060, |D277A); assay: EMSA; 7.5-15 nM BLM with 10 or 20 nM DNA2-D277A; binding enhanced over BLM alone; no ATP, no Mg2+; EMSA: 35 mM Tris-HCl pH 7.5, 1 mM DTT, 100 ng/μl BSA, 2 mM MgCl2, 100 mM NaCl, 25°C, 20 min, 5 nM DNA ends (Mg2+ and ATP omitted in Figure 3B); conditions: protein: recombinant;recombinant; copies: 1;1; label: 32P; blunt
Sequence of BLM;DNA2-D277A (P54132 whole entry, chain 1 of 2): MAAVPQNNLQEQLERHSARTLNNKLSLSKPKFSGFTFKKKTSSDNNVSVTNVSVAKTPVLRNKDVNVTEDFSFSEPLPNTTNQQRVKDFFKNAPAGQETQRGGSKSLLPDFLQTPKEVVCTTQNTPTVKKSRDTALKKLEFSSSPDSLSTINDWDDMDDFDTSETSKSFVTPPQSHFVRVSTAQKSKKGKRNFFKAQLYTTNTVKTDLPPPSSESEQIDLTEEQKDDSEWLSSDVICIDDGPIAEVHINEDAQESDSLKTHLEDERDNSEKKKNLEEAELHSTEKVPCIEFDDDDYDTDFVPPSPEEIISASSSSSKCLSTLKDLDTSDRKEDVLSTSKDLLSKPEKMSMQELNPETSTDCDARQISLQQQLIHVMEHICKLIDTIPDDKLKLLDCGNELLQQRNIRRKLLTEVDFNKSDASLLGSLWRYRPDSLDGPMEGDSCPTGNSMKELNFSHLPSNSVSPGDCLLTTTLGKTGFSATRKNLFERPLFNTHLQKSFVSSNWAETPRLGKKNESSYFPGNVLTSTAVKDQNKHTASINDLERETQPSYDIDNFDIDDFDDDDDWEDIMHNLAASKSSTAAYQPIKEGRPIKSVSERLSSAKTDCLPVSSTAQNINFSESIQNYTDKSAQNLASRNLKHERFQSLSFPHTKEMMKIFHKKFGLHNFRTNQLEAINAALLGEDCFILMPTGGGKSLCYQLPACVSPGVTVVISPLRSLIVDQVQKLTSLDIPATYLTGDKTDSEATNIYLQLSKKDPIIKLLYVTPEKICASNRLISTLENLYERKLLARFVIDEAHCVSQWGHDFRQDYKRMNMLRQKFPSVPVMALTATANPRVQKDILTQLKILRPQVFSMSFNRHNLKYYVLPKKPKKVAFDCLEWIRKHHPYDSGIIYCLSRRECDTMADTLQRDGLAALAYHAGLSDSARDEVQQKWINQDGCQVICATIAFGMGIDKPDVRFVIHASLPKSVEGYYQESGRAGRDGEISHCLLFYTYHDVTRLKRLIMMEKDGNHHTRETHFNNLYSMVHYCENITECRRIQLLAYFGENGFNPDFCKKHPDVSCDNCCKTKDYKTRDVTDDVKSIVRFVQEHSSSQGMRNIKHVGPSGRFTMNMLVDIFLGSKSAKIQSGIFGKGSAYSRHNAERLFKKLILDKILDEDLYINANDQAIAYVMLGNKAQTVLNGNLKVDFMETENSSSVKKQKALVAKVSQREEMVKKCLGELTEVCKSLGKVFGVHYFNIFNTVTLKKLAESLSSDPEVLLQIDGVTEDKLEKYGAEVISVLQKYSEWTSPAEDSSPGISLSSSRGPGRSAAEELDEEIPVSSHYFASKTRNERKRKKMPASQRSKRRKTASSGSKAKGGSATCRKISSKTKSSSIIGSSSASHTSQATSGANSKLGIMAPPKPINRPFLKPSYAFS
Sequence of BLM;DNA2-D277A (P51530 whole entry D277A, chain 2 of 2): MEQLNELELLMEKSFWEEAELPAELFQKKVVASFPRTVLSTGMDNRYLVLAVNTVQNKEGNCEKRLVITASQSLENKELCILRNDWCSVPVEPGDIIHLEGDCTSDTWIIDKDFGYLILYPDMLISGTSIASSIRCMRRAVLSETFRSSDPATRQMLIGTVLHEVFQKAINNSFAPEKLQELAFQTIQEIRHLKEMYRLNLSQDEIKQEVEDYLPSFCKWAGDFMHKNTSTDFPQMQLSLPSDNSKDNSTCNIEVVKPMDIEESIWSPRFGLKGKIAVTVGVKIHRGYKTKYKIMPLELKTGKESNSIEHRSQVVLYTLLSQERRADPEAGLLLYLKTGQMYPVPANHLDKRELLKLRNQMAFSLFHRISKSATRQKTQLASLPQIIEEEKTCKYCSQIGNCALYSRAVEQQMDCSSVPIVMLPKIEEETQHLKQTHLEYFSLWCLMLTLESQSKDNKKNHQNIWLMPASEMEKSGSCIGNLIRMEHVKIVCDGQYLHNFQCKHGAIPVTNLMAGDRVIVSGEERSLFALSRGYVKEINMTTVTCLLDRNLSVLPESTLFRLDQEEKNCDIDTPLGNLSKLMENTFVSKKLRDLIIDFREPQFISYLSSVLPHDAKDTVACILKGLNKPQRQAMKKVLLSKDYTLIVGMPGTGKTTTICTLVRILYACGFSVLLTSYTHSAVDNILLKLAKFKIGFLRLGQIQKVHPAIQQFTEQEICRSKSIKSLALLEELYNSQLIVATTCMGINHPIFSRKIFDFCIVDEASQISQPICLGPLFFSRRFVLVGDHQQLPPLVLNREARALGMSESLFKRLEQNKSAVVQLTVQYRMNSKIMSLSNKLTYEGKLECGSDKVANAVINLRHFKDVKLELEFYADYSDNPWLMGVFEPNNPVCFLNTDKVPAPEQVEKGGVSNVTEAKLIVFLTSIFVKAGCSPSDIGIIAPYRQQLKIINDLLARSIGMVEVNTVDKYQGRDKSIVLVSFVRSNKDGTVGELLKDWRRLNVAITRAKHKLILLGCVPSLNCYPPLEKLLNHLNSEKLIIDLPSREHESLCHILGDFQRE

[2] = molecular target: T1, Topo IIIα (Homo sapiens, UniProt Q13472 1-1001); assay: EMSA; 25-100 nM protein; two discrete complexes; EMSA: 35 mM Tris-HCl pH 7.5, 1 mM DTT, 100 ng/μl BSA, 2 mM MgCl2, 100 mM NaCl, 25°C, 20 min, 5 nM DNA ends (Mg2+ and ATP omitted in Figure 3B); conditions: protein: recombinant; label: 32P; blunt
T1 sequence: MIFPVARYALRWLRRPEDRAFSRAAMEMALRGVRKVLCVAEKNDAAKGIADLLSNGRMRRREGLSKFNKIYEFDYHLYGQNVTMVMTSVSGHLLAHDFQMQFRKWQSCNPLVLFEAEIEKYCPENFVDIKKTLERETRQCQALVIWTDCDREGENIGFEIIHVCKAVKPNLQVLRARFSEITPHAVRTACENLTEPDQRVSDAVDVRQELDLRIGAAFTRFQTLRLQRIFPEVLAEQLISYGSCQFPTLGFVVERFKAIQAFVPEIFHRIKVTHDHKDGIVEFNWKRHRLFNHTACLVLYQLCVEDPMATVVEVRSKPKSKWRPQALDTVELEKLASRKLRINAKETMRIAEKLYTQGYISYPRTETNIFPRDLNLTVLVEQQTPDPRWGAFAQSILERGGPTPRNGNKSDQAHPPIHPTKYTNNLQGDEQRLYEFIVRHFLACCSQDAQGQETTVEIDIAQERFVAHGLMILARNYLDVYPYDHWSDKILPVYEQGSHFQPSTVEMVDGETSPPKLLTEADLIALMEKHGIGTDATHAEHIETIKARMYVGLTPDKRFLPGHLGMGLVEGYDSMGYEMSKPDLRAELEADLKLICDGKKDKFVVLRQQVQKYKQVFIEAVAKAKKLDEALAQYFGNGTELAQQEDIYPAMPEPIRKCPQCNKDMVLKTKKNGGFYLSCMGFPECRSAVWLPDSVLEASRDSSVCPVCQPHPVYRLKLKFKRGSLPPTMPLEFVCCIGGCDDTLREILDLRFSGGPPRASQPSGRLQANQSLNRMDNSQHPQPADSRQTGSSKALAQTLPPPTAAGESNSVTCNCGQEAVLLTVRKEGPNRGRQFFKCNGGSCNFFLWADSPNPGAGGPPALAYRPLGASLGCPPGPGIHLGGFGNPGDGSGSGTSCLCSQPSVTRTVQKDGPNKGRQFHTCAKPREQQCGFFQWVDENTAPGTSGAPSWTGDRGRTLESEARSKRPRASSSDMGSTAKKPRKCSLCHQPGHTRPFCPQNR

[3] = molecular target: T2, RMI1-RMI2 (Homo sapiens, UniProt Q9H9A7;Q96E14 1-625;1-147); assay: EMSA; 25-100 nM protein; EMSA: 35 mM Tris-HCl pH 7.5, 1 mM DTT, 100 ng/μl BSA, 2 mM MgCl2, 100 mM NaCl, 25°C, 20 min, 5 nM DNA ends (Mg2+ and ATP omitted in Figure 3B); conditions: protein: recombinant; copies: 1;1; label: 32P; blunt
T2 sequence 1: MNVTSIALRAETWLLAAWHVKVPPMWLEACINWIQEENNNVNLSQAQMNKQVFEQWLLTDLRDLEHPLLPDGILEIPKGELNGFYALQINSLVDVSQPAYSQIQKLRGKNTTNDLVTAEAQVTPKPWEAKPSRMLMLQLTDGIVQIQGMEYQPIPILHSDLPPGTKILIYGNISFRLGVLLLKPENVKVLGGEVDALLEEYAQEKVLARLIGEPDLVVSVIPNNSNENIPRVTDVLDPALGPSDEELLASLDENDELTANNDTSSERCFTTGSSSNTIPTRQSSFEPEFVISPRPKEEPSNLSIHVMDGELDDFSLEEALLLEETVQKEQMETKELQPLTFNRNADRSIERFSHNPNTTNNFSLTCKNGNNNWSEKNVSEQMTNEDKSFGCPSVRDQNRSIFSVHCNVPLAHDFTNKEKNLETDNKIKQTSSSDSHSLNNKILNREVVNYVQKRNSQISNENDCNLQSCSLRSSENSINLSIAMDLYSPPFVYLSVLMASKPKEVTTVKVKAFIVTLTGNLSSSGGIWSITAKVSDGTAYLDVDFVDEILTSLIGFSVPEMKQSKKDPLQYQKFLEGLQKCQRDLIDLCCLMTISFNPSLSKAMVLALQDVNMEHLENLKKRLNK
T2 sequence 2: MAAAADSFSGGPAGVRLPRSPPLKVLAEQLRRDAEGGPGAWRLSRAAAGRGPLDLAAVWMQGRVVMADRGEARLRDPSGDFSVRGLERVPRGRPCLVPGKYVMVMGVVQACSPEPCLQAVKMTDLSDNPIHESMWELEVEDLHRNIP

[4] = molecular target: T1, Topo IIIα; assay: EMSA; 25-100 nM protein; streptavidin on one end; shifted efficiently; EMSA: 35 mM Tris-HCl pH 7.5, 1 mM DTT, 100 ng/μl BSA, 2 mM MgCl2, 100 mM NaCl, 25°C, 20 min, 5 nM DNA ends (Mg2+ and ATP omitted in Figure 3B); conditions: protein: recombinant; label: 32P; blunt

B1: 80-mer dsDNA (dsDNA)
DNA 1: TTGATAAGAGGTCATTTGAATTCATGGCTTAGAGCTTAATTGCTGAATCTGGTGCTGGGATCCAACATGTTTTAAATATG
DNA 2: CATATTTAAAACATGTTGGATCCCAGCACCAGATTCAGCAATTAAGCTCTAAGCCATGAATTCAAATGACCTCTTATCAA
binding result [1]: binds | binding result [2]: binds | binding result [3]: no binding

B2: 80-mer dsDNA, one end blocked by biotin-streptavidin (dsDNA)
DNA 1: TTGATAAGAGGTCATTTGAATTCATGGCTTAGAGCTTAATTGCTGAATCTGGTGCTGGGATCCAACATGTTTTAAATATG
DNA 2: CATATTTAAAACATGTTGGATCCCAGCACCAGATTCAGCAATTAAGCTCTAAGCCATGAATTCAAATGACCTCTTATCAA
modifications: 5' biotin on one strand (PSOL7475 or PSOL6214; which one not stated), streptavidin bound
binding result [4]: binds
